Values quoted from earlier work as cited in paper PMC3950513.

Target: MukB (Escherichia coli) (UniProt P22523)
UniProt P22523, sequence (P22523 whole entry): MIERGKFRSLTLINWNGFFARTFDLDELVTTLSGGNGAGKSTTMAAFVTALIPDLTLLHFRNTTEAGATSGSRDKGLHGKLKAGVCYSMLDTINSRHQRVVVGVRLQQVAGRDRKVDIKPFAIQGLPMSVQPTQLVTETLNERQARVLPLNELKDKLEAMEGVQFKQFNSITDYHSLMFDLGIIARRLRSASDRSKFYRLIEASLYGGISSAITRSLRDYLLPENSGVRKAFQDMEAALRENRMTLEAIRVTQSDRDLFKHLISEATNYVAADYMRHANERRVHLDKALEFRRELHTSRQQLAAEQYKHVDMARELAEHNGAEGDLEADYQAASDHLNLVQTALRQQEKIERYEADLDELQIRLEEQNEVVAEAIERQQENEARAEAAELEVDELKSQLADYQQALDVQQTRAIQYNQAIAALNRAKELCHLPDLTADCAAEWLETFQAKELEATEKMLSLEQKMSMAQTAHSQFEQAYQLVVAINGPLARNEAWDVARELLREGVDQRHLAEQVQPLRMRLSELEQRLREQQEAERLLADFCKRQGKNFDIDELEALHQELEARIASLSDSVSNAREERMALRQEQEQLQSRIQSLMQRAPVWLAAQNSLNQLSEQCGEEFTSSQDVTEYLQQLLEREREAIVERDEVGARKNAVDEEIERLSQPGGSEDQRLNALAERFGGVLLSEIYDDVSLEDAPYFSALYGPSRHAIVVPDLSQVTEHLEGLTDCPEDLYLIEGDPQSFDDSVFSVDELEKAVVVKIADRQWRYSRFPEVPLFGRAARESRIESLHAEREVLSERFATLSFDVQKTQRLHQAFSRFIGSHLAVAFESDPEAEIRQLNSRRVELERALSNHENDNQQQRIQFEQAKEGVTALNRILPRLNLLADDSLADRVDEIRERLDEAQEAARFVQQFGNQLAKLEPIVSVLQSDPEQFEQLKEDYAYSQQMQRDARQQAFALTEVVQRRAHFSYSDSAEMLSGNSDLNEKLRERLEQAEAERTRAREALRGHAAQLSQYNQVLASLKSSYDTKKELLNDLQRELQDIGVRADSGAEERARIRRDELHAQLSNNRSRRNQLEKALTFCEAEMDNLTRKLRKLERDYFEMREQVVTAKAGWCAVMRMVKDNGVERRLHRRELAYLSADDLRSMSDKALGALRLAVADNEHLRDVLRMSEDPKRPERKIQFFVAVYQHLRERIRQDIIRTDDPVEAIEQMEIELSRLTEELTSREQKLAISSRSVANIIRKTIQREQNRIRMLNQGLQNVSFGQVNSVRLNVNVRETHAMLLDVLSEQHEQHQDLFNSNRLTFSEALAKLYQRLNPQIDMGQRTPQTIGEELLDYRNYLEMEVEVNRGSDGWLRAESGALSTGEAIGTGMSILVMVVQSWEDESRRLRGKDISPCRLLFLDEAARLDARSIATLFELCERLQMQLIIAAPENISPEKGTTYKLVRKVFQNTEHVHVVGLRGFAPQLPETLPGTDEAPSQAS

ParC (from UniProt P0AFI2)
Kd: 500 nM
